{"source": "paper PMC3039075", "about": "(Nitric oxide : biology and chemistry / official journal of …, 2010)", "proteins": {"B1": {"name": "matrix metalloproteinase-9 (MMP-9) (enzyme)", "chain": "not shown"}}, "target": "the molecule itself", "experiment": "non-reducing SDS-PAGE and Western blot", "data": [{"protein": "B1", "values": [{"measurement": "stoichiometry N", "result": 2}]}]}
